# Legend:
# Assay in all cases: purified protein, by the assay type
# [1] = substrate: Nc1ncnc2c1ncn2[C@@H]1O[C@H](COP(=O)(O)O)[C@@H](O)[C@H]1O; assay type: biochemical, Saccharomyces cerevisiae; conditions: other: pH 7.2, 2 mM ATP, 3 μM IMP dehydrogenase, 25° C., standard error in parenthesis
# Method: All kinetic assays were performed in 96 well microtiter plates at 25° C. using 200 μl of assay mix per well. Under these conditions, the path length is 0.56 cm. All assays were monitored by following the change in absorbance at 340 nm over 10 minutes using a Synergy 4 Hybrid Microplate Reader (BioTek, Winooski, Vt.).
# Initial rates for each substrate concentration were determined from a linear fit of the data (A340 vs. time). Km and Vmax values were determined by fitting a plot of initial rate vs. substrate concentration to the Michaelis-Menten equation:
# [formula] where vo is the initial rate of the reaction, [E] is the total enzyme concentration, and [S] is the substrate concentration. kcat values were calculated from the equation: Vmax=kcat[E] (2) where [E] is the molar concentration of the enzyme in the assay.
# [2] = substrate: N[C@@H](Cc1ccc(O)cc1)C(=O)O; conditions: other: 10 mM MgATP, saturating tRNA^Tyr, 25° C., L-Tyr with cyclodityrosine synthase, D-Tyr with D-tyrosyl-tRNA deacylase, pH 7.78
# Method: (§1) The pH of all stock solutions was adjusted to 7.0 prior to use. All kinetic assays were performed in 96 well microtiter plates at 25° C. using either 100 or 200 μl of assay mix per well. Under these conditions, the path lengths are 0.28 and 0.56 cm, respectively. The reaction rate for formation of the L-Tyr-tRNA^TYr product was determined by monitoring the increase in absorbance at 340 nm associated with the conversion of NAD^+ to NADH using a BioTek Synergy 4 plate reader (ε340=6220 M^−1 cm^−1).
# (§2) Initial rates for each substrate concentration were determined from a linear fit of the data (A340 vs. time). Km and Vmax values were determined by fitting a plot of the initial rate vs. substrate concentration to the Michaelis-Menten equation, the same equations (1) and (2) above:
# (§3) [formula] where vo is the initial rate of the reaction and [S] is the substrate concentration. kcat values were calculated from the equation: Vmax=kcat[E]
# [3] = substrate: N[C@H](Cc1ccc(O)cc1)C(=O)O; conditions: other: 10 mM MgATP, saturating tRNA^Tyr, 25° C., L-Tyr with cyclodityrosine synthase, D-Tyr with D-tyrosyl-tRNA deacylase, pH 7.78
# Method: as §1, §2, §3
Protein,Km [1],kcat [1],Km [2],Km [3]
AMP deaminase (Saccharomyces cerevisiae S288C) (protein) MDNQATQRLNDLSLEPAPSHDEQDGSGLVIDIDQRKIGDEQAGVVVDDETPPLEQQDSHESLAADSRNANFSYHENQQLLENGTKQLALDEHDSHSAILEQPSHSTNCSSSNIAAMNKGHDSADHASQNSGGKPRTLSASAQHILPETLKSFAGAPVVNKQVRTSASYKMGMLADDASQQFLDDPSSELIDLYSKVAECRNLRAKYQTISVQNDDQNPKNKPGWVVYPPPPKPSYNSDTKTVVPVTNKPDAEVFDFTKCEIPGEDPDWEFTLNDDDSYVVHRSGKTDELIAQIPTLRDYYLDLEKMISISSDGPAKSFAYRRLQYLEARWNLYYLLNEYQETSVSKRNPHRDFYNVRKVDTHVHHSACMNQKHLLRFIKHKLRHSKDEKVIFRDGKLLTLDEVFRSLHLTGYDLSIDTLDMHAHKDTFHRFDKFNLKYNPIGESRLREIFLKTNNYIKGTYLADITKQVIFDLENSKYQNCEYRISVYGRSLDEWDKLASWVIDNKVISHNVRWLVQIPRLYDIYKKTGIVQSFQDICKNLFQPLFEVTKNPQSHPKLHVFLQRVIGFDSVDDESKVDRRFHRKYPKPSLWEAPQNPPYSYYLYYLYSNVASLNQWRAKRGFNTLVLRPHCGEAGDPEHLVSAYLLAHGISHGILLRKVPFVQYLYYLDQVGIAMSPLSNNALFLTYDKNPFPRYFKRGLNVSLSTDDPLQFSYTREPLIEEYSVAAQIYKLSNVDMCELARNSVLQSGWEAQIKKHWIGKDFDKSGVEGNDVVRTNVPDIRINYRYDTLSTELELVNHFANFKRTIEEK,0.4 (±0.1) mM,21 (±4) s^−1,–,–
G. stearothermophilus tyrosyl-tRNA synthetase (Geobacillus stearothermophilus) (protein) MDLLAELQWRGLVNQTTDEDGLRKLLNEERVTLYCGFDPTADSLHIGHLATILTMRRFQQAGHRPIALVGGATGLIGDPSGKKSERTLNAKETVEAWSARIKEQLGRFLDFEADGNPAKIKNNYDWIGPLDVITFLRDVGKHFSVNYMMAKESVQSRIETGISFTEFSYMMLQAYDFLRLYETEGCRLQIGGSDQWGNITAGLELIRKTKGEARAFGLTIPLVTKADGTKFGKTESGTIWLDKEKTSPYEFYQFWINTDDRDVIRYLKYFTFLSKEEIEALEQELREAPEKRAAQKTLAEEVTKLVHGEEALRQAIRISEALFSGDIANLTAAEIEQGFKDVPSFVHEGGDVPLVELLVSAGISPSKRQAREDIQNGAIYVNGERLQDVGAILTAEHRLEGRFTVIRRGKKKYYLIRYA,–,–,24 (±3) μM,23 (±6) μM
